We go through 8 compounds from publication PMC7824956, “Structural and Biochemical Characterization of a Cold-Active PMGL3 Esterase with Unusual Oligomeric Structure” (Biomolecules, 2021).

Values joined by “and” are separate entries in the source; they are usually repeats but may differ in a detail not shown here. Equal values may be shown once.

In one data set the target is T1, PMGL3 (unidentified, UniProt Z9N994FV33).
T1 construct: recombinant in E. coli, pET32a (stated for mutants), C-terminal hexahistidine tag; 302 residues modelled plus last 10 C-terminal residues invisible; mainly dimer in solution, tetramer in crystal; catalytic motif 147GESAG151, E243, H273
T1 sequence (Z9N994FV33 1-304): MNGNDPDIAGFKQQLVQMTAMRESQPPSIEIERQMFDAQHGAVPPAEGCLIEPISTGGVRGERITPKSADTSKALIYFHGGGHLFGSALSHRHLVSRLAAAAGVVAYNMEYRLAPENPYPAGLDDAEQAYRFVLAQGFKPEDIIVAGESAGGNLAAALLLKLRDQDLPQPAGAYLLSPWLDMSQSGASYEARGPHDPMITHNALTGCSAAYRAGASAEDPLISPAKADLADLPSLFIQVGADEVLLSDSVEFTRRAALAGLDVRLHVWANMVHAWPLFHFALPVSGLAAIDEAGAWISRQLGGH
Briefly: esterase activity, Michaelis-Menten nonlinear regression. Format: biochemical, permafrost metagenome. Conditions: 50 mM Tris-HCl pH 8.0, 100 mM NaCl, 30 °C; 0.2-2 mM substrate. The source says: (§1) esterase activity, Michaelis-Menten nonlinear regression on PMGL3

In data set [1] the test system is T2, CCCC(=O)Oc1ccc([N+](=O)[O-])cc1.
T2 construct: recombinant in E. coli, pET32a (stated for mutants), C-terminal hexahistidine tag; 302 residues modelled plus last 10 C-terminal residues invisible; mainly dimer in solution, tetramer in crystal; catalytic motif 147GESAG151, E243, H273
The description is as above. The format is biochemical, permafrost metagenome. The conditions noted are these: 50 mM Tris-HCl pH 8.0, 100 mM NaCl, 30 °C, 0.2-2 mM substrate.
Excerpt: as §1

The target in data set [2] is PMGL3 D7N mutant (not stated (Siberian permafrost metagenomic DNA library)). Briefly: SEC; samples after incubation for 30 min and/or 1 h at 40 °C; Superdex 200 10/300 GL, 0.4 mL/min, 100 mM Tris-HCl pH 8.0, 150 mM NaCl.
The target is the same in data set [3]. Briefly: SEC; freshly isolated samples; Superdex 200 10/300 GL, 0.4 mL/min, 100 mM Tris-HCl pH 8.0, 150 mM NaCl; column calibrated with protein standards.
Data set [4] has as its target PMGL3 E47Q mutant (not stated (Siberian permafrost metagenomic DNA library)). Briefly: SEC; samples after incubation for 30 min and/or 1 h at 40 °C; Superdex 200 10/300 GL, 0.4 mL/min, 100 mM Tris-HCl pH 8.0, 150 mM NaCl.
Data set [5] has the same target. In words: SEC; freshly isolated samples; Superdex 200 10/300 GL, 0.4 mL/min, 100 mM Tris-HCl pH 8.0, 150 mM NaCl; column calibrated with protein standards.
Data set [6] deals with PMGL3 K67A mutant (not stated (Siberian permafrost metagenomic DNA library)). In words: SEC; samples after incubation for 30 min and/or 1 h at 40 °C; Superdex 200 10/300 GL, 0.4 mL/min, 100 mM Tris-HCl pH 8.0, 150 mM NaCl.
For data set [7] the target is unchanged. In words: SEC; freshly isolated samples; Superdex 200 10/300 GL, 0.4 mL/min, 100 mM Tris-HCl pH 8.0, 150 mM NaCl; column calibrated with protein standards.
Data set [8] addresses cold-active esterase PMGL3, wild type (not stated (Siberian permafrost metagenomic DNA library)). In words: SEC; samples after incubation for 30 min and/or 1 h at 40 °C; Superdex 200 10/300 GL, 0.4 mL/min, 100 mM Tris-HCl pH 8.0, 150 mM NaCl.
For data set [9] the target is unchanged. In words: crystal structure; X-ray, space group C2, two subunits in the asymmetric unit; crystals from 0.1 M sodium citrate pH 5.6, 20% isopropanol, 20% PEG 4000; oligomers from crystal contact analysis (PDBePISA).
The target is the same in data set [10]. Briefly: SEC; freshly isolated samples; Superdex 200 10/300 GL, 0.4 mL/min, 100 mM Tris-HCl pH 8.0, 150 mM NaCl; column calibrated with protein standards.
Data set [11] shares this target. In words: SEC; sample after storage for 3 months at 4 °C; Superdex 200 10/300 GL, 0.4 mL/min, 100 mM Tris-HCl pH 8.0, 150 mM NaCl.
For data set [12] the target is unchanged. In words: crystal structure; X-ray, space group C2, two subunits in the asymmetric unit; crystals from 0.1 M sodium citrate pH 5.6, 20% isopropanol, 20% PEG 4000; oligomers from crystal contact analysis (PDBePISA). This is another data set of the same source.
For data set [13] the target is unchanged. In words: SEC; freshly isolated samples; Superdex 200 10/300 GL, 0.4 mL/min, 100 mM Tris-HCl pH 8.0, 150 mM NaCl; column calibrated with protein standards. The source holds these as a separate data set.

On to `CCCC(=O)Oc1ccc([N+](=O)[O-])cc1` [p-nitrophenyl butyrate], for which the Michaelis constant (Km) at PMGL3 was determined as 980 ± 90 µM.
For the compound PMGL3 (unidentified; D7N), in [1], the Km was found to be 840 ± 70 µM, the maximum rate (Vmax) was 157 µmol/min/mg and the catalytic constant (kcat) worked out at 85 ± 3.15 s⁻¹.
Turning to PMGL3 (unidentified; E47Q), in data set [1], the Michaelis constant (Km) was determined as 1070 ± 90 µM, the maximum rate (Vmax) turned out to be 117 µmol/min/mg and the turnover number (kcat) stood at 63.7 ± 2.07 s⁻¹.
As to PMGL3 (unidentified; K67A), in data set [1], the Km worked out at 940 ± 60 µM, the Vmax was found to be 102 µmol/min/mg and the kcat turned out to be 55.5 ± 1.4 s⁻¹.
Regarding PMGL3 D7N mutant (enzyme), the stoichiometry N in data set [2] is 4; in data set [3], 2 and 4.
For the compound PMGL3 E47Q mutant (enzyme), the stoichiometry N in data set [4] was 4; in [5] it was 4 and 2.
As for PMGL3 K67A mutant (enzyme), the stoichiometry N in [6] was determined as 4; in [7] it was 2.
“cold-active esterase PMGL3, wild type (enzyme)”: the stoichiometry N was determined as 4 in data set [8]; 2 in data set [9]; 2 in [10]; 4 in [11]; 4 in data set [12]; 4 in data set [13].
